The source of these data is publication PMC3378601.

Experiment [1] deals with NM, the prion domain (N and M domains) of the yeast translation termination factor Sup35, untagged (yeast) (UniProt P05453).
Experiment [2] has the same target. The source holds these as a separate data set.
Experiment [3] shares this target. This is another data set of the same source.

A value given as a limit tells only on which side of the number the result lay.

NM, the prion domain (N and M domains) of the yeast translation termination factor Sup35, untagged (yeast), sequence (P05453 1-253): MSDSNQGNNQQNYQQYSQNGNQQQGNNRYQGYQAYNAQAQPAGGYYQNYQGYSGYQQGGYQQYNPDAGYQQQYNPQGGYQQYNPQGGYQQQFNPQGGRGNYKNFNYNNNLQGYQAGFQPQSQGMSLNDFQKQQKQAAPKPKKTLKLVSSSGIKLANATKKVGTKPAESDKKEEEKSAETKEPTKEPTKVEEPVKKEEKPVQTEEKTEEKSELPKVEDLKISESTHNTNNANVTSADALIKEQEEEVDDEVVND

The substance “Hsp26, yeast small heat shock protein (from UniProt P15992 1-214) (natural protein)” registered a pyrene excimer fluorescence of fibers of single cysteine NM mutants after 60 min with Hsp26 (10 µM); reduction at N-terminal positions 2 and 7 (slightly reduced in Head 21-38 and Tail 86-106) in experiment [1] of 2 fold. The inhibition of seeded NM fibrillization by Hsp26 pretreated at 45°C for 10 min, ThT fluorescence; IC50 in experiment [2] was above 24000 nM. The inhibition of NM (5 µM) fibrillization seeded by preformed NM fibers (5% wt/wt), 12 h at 25°C, ThT fluorescence; IC50 of Hsp26 in experiment [3] is 1900 nM.
